Test results as given in PMC1931443, “Vertebrate DM domain proteins bind similar DNA sequences and can heterodimerize on DNA” (BMC Molecular Biology, 2007).

Assays:
[1] = target: the molecule itself; test: native gel or EMSA; one in vitro translated DMRT protein (4 ul translation mix) with 32P-labelled dsDNA probe bearing the DMRT1 consensus site; monomer and dimer complexes seen on DNA; 10 mM Tris-HCl pH 7.9, 100 mM KCl, 10% glycerol, 5 mM MgCl2, 1 mM spermidine, 0.075% Triton-X-100, 1 mM DTT; on ice 10 min; 5% native gel at 4 C
[2] = target: the molecule itself; test: native gel or EMSA; DMRT1 alone or together with a Myc-tagged DMRT protein (in vitro translated) on labelled DMRT1 consensus probe; composition of the DNA/protein complexes tested by supershift with DMRT1 antibody or anti-Myc 9E10; dimers seen on DNA

Row | Protein | stoichiometry N [1] | stoichiometry N [2]
1 | DMRT3 (mouse), Myc epitope tagged, in vitro translated (natural protein, UniProt Q80WT2 1-476, looked up, DMRT3, mouse; also called tagged DMRT3; source: in vitro translated (TNT Quick Coupled transcription/translation system, Promega, with 20 uM ZnSO4), not purified) MNGYGSPYLYMGGPVSQPPRAPLQRTPKCARCRNHGVLSWLKGHKRYCRFKDCTCEKCILIIERQRVMAAQVALRRQQANESLESLIPDSLRALPGPPPPGDAAATAATASQSSPASQASQPPAPPRPTAELAAAAALRWVAEPQPGTLPAQLAKPDLTEERVGDSSSTDNTAEAFSDKDTDQRSSPDVVKSKNCFTPESPEIVSVDEGGYAVQKNGGNPESCPDSPKYHAEQSHLLIEGPSGTVSLPFSLKANRPPLEVLKKIFPNQKPTVLELILKGCGGDLVSAVEVLLSSRSSAAGAERTAEESLVLPSSGHIFEHTLGSYPISSSKWSVGSAFRVPDTLRFSADSSNVVPNPLAVPLQHPFPQPPRYPLMLRNTLARNQSSPFLPNDVTLWNTMTLQQQYQLRSQYVSPFPSNSTSVFRSSPVLSSRTTEDPRISIPDDGCPIVTKQSIYTEDDYDERSDSSDSRILNTSS | 2 | 
2 | DMRT1 (mouse), full-length, amino-terminal Myc epitope tag, in vitro translated (natural protein, DMRT1, mouse, full-length protein made by in vitro transcription/translation; also called in vitro translated DMRT1; source: in vitro translated (TNT Quick Coupled transcription/translation system, Promega, with 20 uM ZnSO4), not purified) not shown | 2 | 
3 | DMRT5 (mouse), Myc epitope tagged, in vitro translated (natural protein, UniProt A2A9A2 1-531, looked up, DMRT5, mouse; source: in vitro translated (TNT Quick Coupled transcription/translation system, Promega, with 20 uM ZnSO4), not purified) MELRSELPSVPGAATAAATATGPPVASVASVAAAAAAAASLPVSVAGGLLRAPPLLLRAAEKYPRTPKCARCRNHGVVSALKGHKRYCRWKDCLCAKCTLIAERQRVMAAQVALRRQQAQEENEARELQLLYGTAEGLALAAANGIIPPRPAYEVFGSVCATDGGGPGAGAPAGSAGGAGGAEAKLQKFDLFPKTLLQAGRPDSPQPPPGKPLSPDGADSGPRTSSPEVRPGSGSENGDGESFSGSPLARASKEAGGSCPGSAGAGGGGEEDSPGSSSPLGSESGSEADKEEAEAAPTPGLGGGPGPRQRTPLDILTRVFPGHRRGVLELVLQGCGGDVVQAIEQVLNHHRGGLAAGLGPAAPLEKAAVSAAVEDAWPGRVEAAAAGGAGLPAPLQTGPTAPPHHRPLLAGAMTPGALGSLSSRSAFSPLQPNASHFGADAGAYPLGAPLGLSPLRLAYSAAAAHSRGLAFMAPYSTAGLVPTLGFRPPMDYAFSDLMRDRSAAAAAAVHKEPGYGGGLYGPMVNGTPEKQ | 2 | 
4 | DMRT1 of the heterodimerization gel shifts (complex not affected by the 9E10 anti-Myc antibody) (natural protein, DMRT1, mouse; the construct used in this experiment is not described; The methods describe only a Myc-tagged DMRT1 construct; source: in vitro translated, not purified) not shown |  | 2
